Data reported in US20090130133A1 (VAXON BIOTECH, published 2009).

How the values were obtained:
HLA-A*0201 [1] = biological target: T1, HLA-A*0201 (human); experiment: T2 cells loaded with 100 µM peptide, Brefeldin A, decay of HLA-A*0201 labelling (mAb BB7.2) over 0-6 h
T1 construct: whole, on cells; MHC class I molecule on T2 cells; also called HLA-A2
Protocol: (§1) The protocol used to measure relative affinity (RA) is described in detail elsewhere (Tourdot et al., 2000). […] The cells were then treated with Brefeldin A for 1 h, washed, incubated at 37° C. for 0, 2, 4 and 6 hours, and labeled with mAb BB7.2.

HLA-A*0201 [2] = biological target: T1, HLA-A*0201; experiment: T2 cell HLA-A*0201 stabilisation, flow cytometry with mAb BB7.2; peptide concentration / reference peptide concentration giving 20% HLA-A*0201 expression
Protocol: as §1

Binder	DC50 (half-life of the HLA/peptide complex) (HLA-A*0201 [1])	RA (relative affinity) (HLA-A*0201 [2])
YLEYRQVPV (also called optimized variant of MAGE-A248D9/G9) [MAGE-A248V9]	4 h	1.8 ratio to reference peptide HIVpol589 (reference = 1)
YLQVNSLQTV (also called optimized variant of the cryptic peptide TERT988) [TERT988Y]	> 6 h	2.1 ratio to reference peptide HIVpol589 (reference = 1)
YLEEITGYL (also called optimized variant of the cryptic peptide HER-2/neu402) [HER-2/neu402Y]	4 h	3.6 ratio to reference peptide HIVpol589 (reference = 1)
